Experimental data published in paper PMC3873232.

Legend:
[1] = biological target: unmodified Spt5 CTD peptide (S. pombe); assay: pull-down; biotinylated peptides (50 µg) on streptavidin Dynabeads incubated with 50-200 ng TAP-purified factor in 200 µl (20 mM Hepes pH 7.6, 37.5 mM KOAc, 2.5 mM MgOAc, 5% glycerol, 0.075% Triton X-100), 4°C, 1 h; washes with 250 mM KOAc; immunoblot with a TAP antibody; percent bound by ImageJ
[2] = biological target: Thr1-P form of the Spt5 CTD peptide (S. pombe); assay: as above

| percent bound [1] | percent bound [2] | Substance |
| --- | --- | --- |
| 5% | – | PAF complex purified from the tpr1-TAP strain (from UniProt O42668 1-1039; Q9UUE7 1-371) |
| 10% | 35% | Prf1-CBP (TAP-purified, native Prf1) (natural protein) |
